Measured values reported in IntAct's records for PubMed 17662948.

Biological target: rd23b_human RAD23B (UniProt P54727)
Sequence (P54727 whole entry): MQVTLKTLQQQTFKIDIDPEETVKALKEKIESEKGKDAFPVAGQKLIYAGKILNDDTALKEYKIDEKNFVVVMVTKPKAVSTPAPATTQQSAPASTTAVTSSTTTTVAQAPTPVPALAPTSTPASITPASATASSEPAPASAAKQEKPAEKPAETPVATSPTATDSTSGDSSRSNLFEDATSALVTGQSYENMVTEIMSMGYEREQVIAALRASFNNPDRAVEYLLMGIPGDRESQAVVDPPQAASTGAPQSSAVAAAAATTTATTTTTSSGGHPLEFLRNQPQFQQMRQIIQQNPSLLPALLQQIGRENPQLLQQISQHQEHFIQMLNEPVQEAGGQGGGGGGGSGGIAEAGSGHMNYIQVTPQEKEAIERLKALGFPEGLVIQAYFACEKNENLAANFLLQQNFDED

Paired box protein Pax-3 (Mus musculus), P24610 K437R, sequence (P24610 whole entry K437R): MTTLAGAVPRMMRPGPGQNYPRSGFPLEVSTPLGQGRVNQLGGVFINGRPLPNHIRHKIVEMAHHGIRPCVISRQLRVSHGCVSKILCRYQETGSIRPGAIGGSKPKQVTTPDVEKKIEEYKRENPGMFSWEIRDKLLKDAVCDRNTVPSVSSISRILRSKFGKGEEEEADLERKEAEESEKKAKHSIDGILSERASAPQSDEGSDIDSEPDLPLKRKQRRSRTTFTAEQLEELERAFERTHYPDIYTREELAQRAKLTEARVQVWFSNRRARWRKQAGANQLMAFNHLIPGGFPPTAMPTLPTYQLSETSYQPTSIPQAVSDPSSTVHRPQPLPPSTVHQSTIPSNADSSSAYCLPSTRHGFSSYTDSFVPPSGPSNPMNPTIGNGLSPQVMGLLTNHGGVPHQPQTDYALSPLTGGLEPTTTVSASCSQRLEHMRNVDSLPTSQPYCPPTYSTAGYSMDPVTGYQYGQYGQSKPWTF
Paired box protein Pax-3 (Mus musculus), P24610 K475R, sequence (P24610 whole entry K475R): as the sequence (P24610 whole entry K437R) above, with R437K, K475R counted along it

Row | effect of a mutation on the interaction | Substance
1 | decreasing interaction | Paired box protein Pax-3 (Mus musculus), P24610 K437R
2 | decreasing interaction | Paired box protein Pax-3 (Mus musculus), P24610 K475R
